For 2 substances, GCTM2 expression (ELISA-based assay; hES cells treated 2 weeks in serum-free medium with S1P plus PDGF-AA) and GCTM2 expression (ELISA-based assay; hES cells treated 2 weeks in serum-free medium with S1P plus PDGF-AB) (% more GCTM2+ than the controls) results are on record in patent publication US7604990.

The target of one assay is PDGFR-α (human) (UniProt P16234). In words: cell-based or functional assay.
For the next assay, the target named is PDGFR-β (human) (UniProt P09619). Briefly: cell-based or functional assay.
Sequence of PDGFR-β (human) (P09619 33-1106): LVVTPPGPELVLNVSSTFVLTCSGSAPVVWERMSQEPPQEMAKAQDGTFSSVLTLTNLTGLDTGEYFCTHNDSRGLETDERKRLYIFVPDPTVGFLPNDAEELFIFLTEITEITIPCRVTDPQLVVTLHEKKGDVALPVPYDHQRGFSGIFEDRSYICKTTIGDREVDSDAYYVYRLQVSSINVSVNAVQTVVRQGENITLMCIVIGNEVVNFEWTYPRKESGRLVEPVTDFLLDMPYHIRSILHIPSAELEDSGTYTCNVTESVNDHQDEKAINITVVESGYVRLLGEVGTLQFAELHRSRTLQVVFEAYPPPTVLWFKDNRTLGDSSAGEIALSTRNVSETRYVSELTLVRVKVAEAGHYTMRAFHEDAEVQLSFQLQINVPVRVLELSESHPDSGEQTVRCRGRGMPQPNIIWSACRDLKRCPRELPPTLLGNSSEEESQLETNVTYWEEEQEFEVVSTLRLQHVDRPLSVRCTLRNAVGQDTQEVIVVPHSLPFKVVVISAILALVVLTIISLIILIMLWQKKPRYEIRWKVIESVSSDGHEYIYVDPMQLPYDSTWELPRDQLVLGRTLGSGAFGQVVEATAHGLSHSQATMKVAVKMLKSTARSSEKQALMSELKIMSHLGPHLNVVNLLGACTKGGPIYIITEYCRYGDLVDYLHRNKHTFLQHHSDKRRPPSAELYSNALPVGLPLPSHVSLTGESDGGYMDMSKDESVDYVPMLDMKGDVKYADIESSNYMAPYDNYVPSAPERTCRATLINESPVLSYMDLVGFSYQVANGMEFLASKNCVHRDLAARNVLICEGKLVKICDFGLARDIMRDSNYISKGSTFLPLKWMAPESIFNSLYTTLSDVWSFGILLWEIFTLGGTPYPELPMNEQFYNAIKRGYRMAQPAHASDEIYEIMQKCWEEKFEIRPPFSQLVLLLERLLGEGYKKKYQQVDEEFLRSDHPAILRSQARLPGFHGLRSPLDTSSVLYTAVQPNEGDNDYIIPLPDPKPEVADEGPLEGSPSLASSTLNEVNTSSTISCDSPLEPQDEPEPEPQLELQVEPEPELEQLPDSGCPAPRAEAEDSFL

Sequence of PDGFR-α (human) (P16234 24-1089): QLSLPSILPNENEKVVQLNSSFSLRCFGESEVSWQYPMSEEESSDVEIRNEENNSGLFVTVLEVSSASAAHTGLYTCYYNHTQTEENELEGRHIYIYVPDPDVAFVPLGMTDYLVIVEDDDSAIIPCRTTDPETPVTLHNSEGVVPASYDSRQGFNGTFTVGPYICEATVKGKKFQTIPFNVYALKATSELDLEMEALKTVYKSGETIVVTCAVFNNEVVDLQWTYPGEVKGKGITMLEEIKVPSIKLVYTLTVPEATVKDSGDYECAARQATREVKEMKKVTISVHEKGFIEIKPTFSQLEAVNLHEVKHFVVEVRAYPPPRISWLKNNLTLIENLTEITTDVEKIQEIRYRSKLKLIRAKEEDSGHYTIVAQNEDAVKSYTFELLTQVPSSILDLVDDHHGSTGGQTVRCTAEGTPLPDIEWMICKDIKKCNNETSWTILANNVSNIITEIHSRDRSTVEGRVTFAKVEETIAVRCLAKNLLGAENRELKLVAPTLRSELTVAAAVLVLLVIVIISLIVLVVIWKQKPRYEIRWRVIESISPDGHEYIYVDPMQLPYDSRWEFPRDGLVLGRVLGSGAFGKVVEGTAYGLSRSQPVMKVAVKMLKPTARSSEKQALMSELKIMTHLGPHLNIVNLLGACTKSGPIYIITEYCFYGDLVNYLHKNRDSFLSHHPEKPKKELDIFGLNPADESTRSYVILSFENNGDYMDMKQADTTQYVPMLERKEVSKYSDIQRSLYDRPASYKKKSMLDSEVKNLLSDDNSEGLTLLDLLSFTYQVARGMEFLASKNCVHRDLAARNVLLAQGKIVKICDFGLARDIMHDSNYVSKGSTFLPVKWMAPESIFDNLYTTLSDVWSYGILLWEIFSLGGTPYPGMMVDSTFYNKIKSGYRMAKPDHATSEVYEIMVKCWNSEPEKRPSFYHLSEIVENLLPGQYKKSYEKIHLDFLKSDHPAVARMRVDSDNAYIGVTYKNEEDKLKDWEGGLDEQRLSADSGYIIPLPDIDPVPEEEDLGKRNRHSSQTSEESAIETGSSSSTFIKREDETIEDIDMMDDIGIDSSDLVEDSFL

Regarding “Human PDGF-AA (from UniProt P04085 87-211) (ligand)”, the GCTM2 expression (ELISA-based assay; hES cells treated 2 weeks in serum-free medium with S1P plus PDGF-AA) with PDGFR-α (human) was 220 % of control. “Human PDGF-AB (from UniProt P04085 87-211; P01127 82-190) (ligand)”: the GCTM2 expression (ELISA-based assay; hES cells treated 2 weeks in serum-free medium with S1P plus PDGF-AB) (% more GCTM2+ than the controls) with PDGFR-α (human) and with PDGFR-β (human) was 153 throughout.
